Among the data in patent US20110059889A1 (SYNTONIX PHARMACEUTICALS, published 2011) are Kd and IC50 values, retold here.

Like-named read-outs stand apart in the source and are kept apart here. Numbered stars: 1 amine (or outer) side, 2 acyl side, 3 side chain; on linkers, the order of the positions; unused ones are H or OH. Bridge positions count the residues as written; N and C are the ends. Square brackets hold non-standard residues; d marks the D form. Ends that are not written are not given here. X2 = (3R)‑3‑amino‑1‑carboxymethyl‑valerolactam, O=C1[C@H](N[*:1])CCCN1CC(=O)[*:2]; X1 = 3‑amino‑2‑oxo‑1‑piperidine‑acetic acid, O=C1C(N[*:1])CCCN1CC(=O)[*:2]; NMeL = CN[C@@H](CC(C)C)C(=O)O; Pen = CC(C)(S)[C@H](N)C(=O)O; NMeA = CN[C@@H](C)C(=O)O; Sar = CNCC(=O)O

In experiment [1] the target is T1, soluble human FcRn (shFcRn) (human, UniProt P55899 24-297; P61769 21-119).
T1 construct: Biotinylated for the ELISA, amine-coupled to a CM5 chip for SPR; also called biotinylated shFcRn
T1 sequence (P55899 24-297 limits assumed, chain 1 of 2): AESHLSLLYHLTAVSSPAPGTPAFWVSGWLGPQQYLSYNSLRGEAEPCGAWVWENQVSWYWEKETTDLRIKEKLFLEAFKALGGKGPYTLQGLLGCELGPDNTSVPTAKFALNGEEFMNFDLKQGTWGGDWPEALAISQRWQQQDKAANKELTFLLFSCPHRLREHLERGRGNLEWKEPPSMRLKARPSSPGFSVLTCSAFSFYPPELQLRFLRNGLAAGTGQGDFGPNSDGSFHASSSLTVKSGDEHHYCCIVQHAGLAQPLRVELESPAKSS
T1 sequence (P61769 21-119 limits assumed, chain 2 of 2): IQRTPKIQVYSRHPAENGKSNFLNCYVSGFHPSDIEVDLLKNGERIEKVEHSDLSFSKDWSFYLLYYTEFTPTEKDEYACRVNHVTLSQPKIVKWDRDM
Kind of experiment: SPR pH 6.

The target in experiment [2] is T1, soluble human FcRn (shFcRn). Briefly: SPR pH 6. This is another data set of the same source.
Protocol: (§1) The following steps were performed to cross-link soluble human or cynomolgus FcRn to the dextran surface of a CM5 sensor chip (Biacore AB, Uppsala, Sweden) by an amine coupling reaction involving 1-ethyl-(3-dimethylaminopropyl)-carbodiimide hydrochloride (EDC) (Biacore AB, Uppsala, Sweden) and N-hydroxysuccinimide (NHS) (Biacore AB, Uppsala, Sweden) as recommended by Biacore (BIAapplications Handbook, version AB, section 4.2, Biacore AB, Uppsala, Sweden). […] Residual sites on the FcRn flow cell were blocked with 1 M ethanolamine hydrochloride pH 8.5 (Biacore AB, Uppsala, Sweden). A control flow cell was blocked with ethanolamine for reference subtraction. For analysis of the monomeric peptides, FcRn was coated to a final density of 4000-5000 response units (RU). For analysis of the peptide dimers, FcRn was coated to a density of 2000-2500 RU. All SPR measurements were performed using a BIACORE 3000 Instrument (Biacore AB Uppsala, Sweden). For measurements done at either pH 6 or pH 7.4, experiments were performed in 50 mM phosphate, 100 mM sodium chloride, 0.01% surfactant P20 (Biacore AB, Uppsala, Sweden).
(§2) Ten, 2-fold dilutions of the peptide were injected over the FcRn-CM5 chip at a rate of 20 μl/min for 2 min. The peptide was dissociated from the chip for 2.5 minutes with buffer. Any remaining peptide was removed from the chip with a 30 second injection of HBS-P buffer (Biacore AB, Uppsala, Sweden) at a rate of 30 μl/min. Sensorgrams were generated and analyzed using BiaEval software version 3.1 (Biacore AB, Uppsala, Sweden). The equilibrium RU observed for each injection was plotted against concentration. The equilibrium KD values were derived by analysis of the plots using the steady state affinity model included in the BiaEval software.
Experiment [3] has the same target. Kind of experiment: SPR pH 6. This is another data set of the same source.
Protocol: as §1, §2
Experiment [4] shares this target. Kind of experiment: IgG competition ELISA. (In an ELISA, binding on a coated surface is turned into a signal by an enzyme label.)
Protocol: (§3) The wells were coated with 100 μl/well of 1 μg/ml biotinylated-shFcRn in Buffer A. The plate was sealed and incubated at 37° C. for 2 hours. Afterwards, the plate was washed with 200 μl/well of Buffer B (Buffer B: 100 mM MES pH 6, 150 mM NaCl, 0.5% BSA IgG-free (Jackson ImmunoResearch, West Grove, Pa.), 0.05% Tween-20). […] To allow for mixing, the plate was rocked for 2 minutes, sealed and incubated at 37° C. for 2 hours. […] The plate was covered, incubated for 30 minutes at room temperature and washed 4 times with 200 μl/well of ice-cold buffer B. SureBlue TMB substrate solution (100 μl/well, KPL, Gaithersburg, Md.) was added and the plate was allowed to incubate at room temperature until color developed, which took 5 to 10 minutes. Once color developed, 100 μl/well of TMB stop solution (KPL, Gaithersburg, Md.) was added and the absorbance was measured at 450 nm. The data was plotted as absorbance vs. peptide concentration to derive the inhibitory concentration 50% (IC₅₀) values.
For experiment [5] the target is unchanged. Briefly: IgG competition ELISA. The source holds these as a separate data set.
Protocol: as §3
Experiment [6] has the same target. Kind of experiment: IgG competition ELISA. This is another data set of the same source.
Protocol: as §3
For experiment [7] the target is unchanged. Briefly: SPR pH 6. The source holds these as a separate data set.
Protocol: as §1, §2
Experiment [8] has the same target. Briefly: IgG competition ELISA. The source holds these as a separate data set.
Protocol: as §3
Experiment [9] shares this target. Briefly: IgG competition ELISA. The source holds these as a separate data set.
Protocol: as §3
The target is the same in experiment [10]. Kind of experiment: IgG competition ELISA. This is another data set of the same source.
Protocol: as §3

B1: Peptide No. 235 (peptide)
peptide: RF[Pen]TGHFG[Sar][NMeL]YPC-NH2
modifications: disulfide 3-13; N-terminus assumed
SMILES: CC(C)C[C@H]1C(=O)N[C@@H](Cc2ccc(O)cc2)C(=O)N2CCC[C@H]2C(=O)N[C@H](C(N)=O)CSSC(C)(C)[C@H](NC(=O)[C@H](Cc2ccccc2)NC(=O)[C@@H](N)CCCNC(=N)N)C(=O)N[C@@H]([C@@H](C)O)C(=O)NCC(=O)N[C@@H](Cc2c[nH]cn2)C(=O)N[C@@H](Cc2ccccc2)C(=O)NCC(=O)N(C)CC(=O)N1C
For B1, the dissociation constant Kd in [1] and in [2] was 31 nM each time.

B2: Peptide No. 237 (peptide)
peptide: RF[Pen]TGHFGGWYPC-NH2
modifications: disulfide 3-13; N-terminus assumed
SMILES: C[C@@H](O)[C@@H]1NC(=O)[C@@H](NC(=O)[C@H](Cc2ccccc2)NC(=O)[C@@H](N)CCCNC(=N)N)C(C)(C)SSC[C@@H](C(N)=O)NC(=O)[C@@H]2CCCN2C(=O)[C@H](Cc2ccc(O)cc2)NC(=O)[C@H](Cc2c[nH]c3ccccc23)NC(=O)CNC(=O)CNC(=O)[C@H](Cc2ccccc2)NC(=O)[C@H](Cc2c[nH]cn2)NC(=O)CNC1=O
Turning to B2, the dissociation constant (Kd) (in general, a measure of binding affinity in units of concentration) in experiment [3] amounted to 140 nM. In addition, the IC50 (commonly the point on the concentration scale where inhibition reaches its midpoint) in experiment [4] came out at 2800 nM.

B3: Peptide No. 279 (peptide)
peptide: RF[Pen]TGHFG[Sar][NMeL]YPC-NH2
modifications: disulfide 3-13; also: dimer: N-termini joined by Bis-dPEG6 diacid linker
notes: N-terminally linked dimer; drawing CHEM-US-00123
B3: in [5], the IC50 came to 7 nM.

B4: Peptide No. 112 (peptide)
peptide: QRF[Pen]TGHFG[Sar]LYPCNGP-NH2
modifications: disulfide 4-14; N-terminus assumed
SMILES: CC(C)C[C@@H]1NC(=O)CN(C)C(=O)CNC(=O)[C@H](Cc2ccccc2)NC(=O)[C@H](Cc2c[nH]cn2)NC(=O)CNC(=O)[C@H]([C@@H](C)O)NC(=O)[C@@H](NC(=O)[C@H](Cc2ccccc2)NC(=O)[C@H](CCCNC(=N)N)NC(=O)[C@@H](N)CCC(N)=O)C(C)(C)SSC[C@@H](C(=O)N[C@@H](CC(N)=O)C(=O)NCC(=O)N2CCC[C@H]2C(N)=O)NC(=O)[C@@H]2CCCN2C(=O)[C@H](Cc2ccc(O)cc2)NC1=O
B4: the IC50 in experiment [6] is 900 nM.

B5: Peptide No. 201 (peptide)
peptide: QRF[Pen]TGHFGGLYPCNGP-NH2
modifications: disulfide 4-14; also: N-terminally linked homodimer via ethylene glycol-bis(succinic acid) linker
notes: N-terminally linked dimer
In experiment [5], B5 returned a 50% inhibitory concentration (IC50) of 26 nM.

B6: Peptide No. 214 (peptide)
peptide: RFCTGHFXLYPC
modifications: not fully specified; Pen 3; X 8 = 3(S)-3-amino-2-oxo-1-pyrrolidine acetic acid in place of Gly-Gly; disulfide 3-12; C-terminal amide
B6 registered an equilibrium dissociation constant (Kd) in [7] of 280 nM. The molecule also came in with an IC50 in [8] of 2300 nM. Molecule RF[Pen]TGHF[X1]LYPC-NH2 (disulfide 3-12) [Peptide No. 178] gave a Kd in experiment [7] of 160 nM. In addition, the half-inhibitory concentration (IC50) in [8] was 660 nM.

B7: Peptide No. 280 (peptide)
peptide: RFCTGHFGGLYPC
modifications: Pen 3; Sar 9; NMeLeu 10; disulfide 3-13 within each chain; C-termini joined through the two amino groups of a branching Lys
notes: C-terminally linked dimer; drawing CHEM-US-00124
Consider B7, for which the half-inhibitory concentration (IC50) in experiment [5] stood at 25 nM.

B8: Peptide No. 97 (peptide)
peptide: QRY[Pen]TGHFGGLYPCNGP-NH2
modifications: disulfide 4-14; N-terminus assumed
SMILES: CC(C)C[C@@H]1NC(=O)CNC(=O)CNC(=O)[C@H](Cc2ccccc2)NC(=O)[C@H](Cc2c[nH]cn2)NC(=O)CNC(=O)[C@H]([C@@H](C)O)NC(=O)[C@@H](NC(=O)[C@H](Cc2ccc(O)cc2)NC(=O)[C@H](CCCNC(=N)N)NC(=O)[C@@H](N)CCC(N)=O)C(C)(C)SSC[C@@H](C(=O)N[C@@H](CC(N)=O)C(=O)NCC(=O)N2CCC[C@H]2C(N)=O)NC(=O)[C@@H]2CCCN2C(=O)[C@H](Cc2ccc(O)cc2)NC1=O
Turning to B8, in experiment [9], the IC50 was 2400 nM. In other words, the single-digit micromolar range.

B9: Peptide No. 238 (peptide)
peptide: QRF[Pen]TGHFG[Sar]WYPCNGP-NH2
modifications: disulfide 4-14; N-terminus assumed
SMILES: C[C@@H](O)[C@@H]1NC(=O)[C@@H](NC(=O)[C@H](Cc2ccccc2)NC(=O)[C@H](CCCNC(=N)N)NC(=O)[C@@H](N)CCC(N)=O)C(C)(C)SSC[C@@H](C(=O)N[C@@H](CC(N)=O)C(=O)NCC(=O)N2CCC[C@H]2C(N)=O)NC(=O)[C@@H]2CCCN2C(=O)[C@H](Cc2ccc(O)cc2)NC(=O)[C@H](Cc2c[nH]c3ccccc23)NC(=O)CN(C)C(=O)CNC(=O)[C@H](Cc2ccccc2)NC(=O)[C@H](Cc2c[nH]cn2)NC(=O)CNC1=O
The molecule B9 registered a 50% inhibitory concentration (IC50) in experiment [4] of 1000 nM.

B10: Peptide No. 101 (peptide)
peptide: QRF[Pen]TGHFGGIYPCNGP-NH2
modifications: disulfide 4-14; N-terminus assumed
SMILES: CC[C@H](C)[C@@H]1NC(=O)CNC(=O)CNC(=O)[C@H](Cc2ccccc2)NC(=O)[C@H](Cc2c[nH]cn2)NC(=O)CNC(=O)[C@H]([C@@H](C)O)NC(=O)[C@@H](NC(=O)[C@H](Cc2ccccc2)NC(=O)[C@H](CCCNC(=N)N)NC(=O)[C@@H](N)CCC(N)=O)C(C)(C)SSC[C@@H](C(=O)N[C@@H](CC(N)=O)C(=O)NCC(=O)N2CCC[C@H]2C(N)=O)NC(=O)[C@@H]2CCCN2C(=O)[C@H](Cc2ccc(O)cc2)NC1=O
For the molecule B10, binding in experiment [3] was put at a Kd of 340 nM. For the same molecule, the IC50 in [4] stood at 3400 nM.

B11: Peptide No. 115 (peptide)
peptide: QRF[Pen]TGHFGGFYPCNGP-NH2
modifications: disulfide 4-14; N-terminus assumed
SMILES: C[C@@H](O)[C@@H]1NC(=O)[C@@H](NC(=O)[C@H](Cc2ccccc2)NC(=O)[C@H](CCCNC(=N)N)NC(=O)[C@@H](N)CCC(N)=O)C(C)(C)SSC[C@@H](C(=O)N[C@@H](CC(N)=O)C(=O)NCC(=O)N2CCC[C@H]2C(N)=O)NC(=O)[C@@H]2CCCN2C(=O)[C@H](Cc2ccc(O)cc2)NC(=O)[C@H](Cc2ccccc2)NC(=O)CNC(=O)CNC(=O)[C@H](Cc2ccccc2)NC(=O)[C@H](Cc2c[nH]cn2)NC(=O)CNC1=O
Regarding B11, in experiment [3], the Kd worked out at 400 nM. In addition, the IC50 in experiment [4] amounted to 4100 nM.

B12: Peptide No. 288 (peptide)
peptide: RF[Pen]TGHFG[Sar][NMeL]YPCGG
modifications: disulfide 3-13; also: dimer: C-termini joined through a branching Lys
notes: C-terminally linked dimer; drawing CHEM-US-00132
Consider B12, for which the concentration for half-maximal inhibition (IC50) in experiment [5] was found to be 16 nM. This lies in the double-digit nanomolar range.

B13: Peptide No. 111 (peptide)
peptide: QRF[Pen]TGHF[Sar]GLYPCNGP-NH2
modifications: disulfide 4-14; N-terminus assumed
SMILES: CC(C)C[C@@H]1NC(=O)CNC(=O)CN(C)C(=O)[C@H](Cc2ccccc2)NC(=O)[C@H](Cc2c[nH]cn2)NC(=O)CNC(=O)[C@H]([C@@H](C)O)NC(=O)[C@@H](NC(=O)[C@H](Cc2ccccc2)NC(=O)[C@H](CCCNC(=N)N)NC(=O)[C@@H](N)CCC(N)=O)C(C)(C)SSC[C@@H](C(=O)N[C@@H](CC(N)=O)C(=O)NCC(=O)N2CCC[C@H]2C(N)=O)NC(=O)[C@@H]2CCCN2C(=O)[C@H](Cc2ccc(O)cc2)NC1=O
Turning to B13, the affinity in experiment [1], expressed as Kd, was 2000 nM.

B14: Peptide No. 228 (peptide)
peptide: RF[Pen][NMeA]GHF[X2][NMeL]YPC-NH2
modifications: disulfide 3-12; N-terminus assumed
SMILES: CC(C)C[C@H]1C(=O)N[C@@H](Cc2ccc(O)cc2)C(=O)N2CCC[C@H]2C(=O)N[C@H](C(N)=O)CSSC(C)(C)[C@H](NC(=O)[C@H](Cc2ccccc2)NC(=O)[C@@H](N)CCCNC(=N)N)C(=O)N(C)[C@@H](C)C(=O)NCC(=O)N[C@@H](Cc2c[nH]cn2)C(=O)N[C@@H](Cc2ccccc2)C(=O)N[C@@H]2CCCN(CC(=O)N1C)C2=O
In turn, B14 had a dissociation constant Kd in experiment [7] of 145 nM. For the same molecule, the half-maximal inhibitory concentration (IC50) in experiment [8] was found to be 1100 nM.

B15: Peptide No. 205 (peptide)
peptide: RFCTGHFXLYPC
modifications: not fully specified; Pen 3; X 8 = 3(S)-2-amino-2-oxo-1-azepine acetic acid (so in the source) in place of Gly-Gly; disulfide 3-12; C-terminal amide
In turn, B15 showed a dissociation constant Kd in [7] of 103 nM. The IC50 in [8] is 640 nM.

In experiment [10], QRFCTGHFGGLXPCNGP (Pen 4; 2-pyridylAla 12 (printed 2-pvridylAla); disulfide 4-14; C-terminal amide) [Peptide No. 66] gave a concentration for half-maximal inhibition (IC50) above 125000 nM.

B16: Peptide No. 287 (peptide)
peptide: RF[Pen]TGHFG[Sar][NMeL]YPCG
modifications: disulfide 3-13; also: dimer: C-termini joined through a branching Lys
notes: C-terminally linked dimer; drawing CHEM-US-00131
In the case of B16, in experiment [5], the IC50 amounted to 20 nM. In experiment [7], RF[Pen]TGHF[X1]LYPC-NH2 (disulfide 3-12) [Peptide No. 179] returned a Kd of 670 nM. This molecule also yielded a 50% inhibitory concentration (IC50) in [8] of 7200 nM.
